Patent publication US20050214772, “Thio modified aptamer synthetic methods and compositions” (Board Of Regents, The University Of Texas System, published 2005)

Assays:
[1] = biological target: NF-IL6 (C/EBPbeta) tryptic core domain bZIP (TCD) (UniProt P17676); experiment: FP; details: Kobs, direct titration, normal phosphate backbone
NF-kB p50 homodimer [2] = biological target: T1, NF-kB p50 homodimer (UniProt P19838 P19838:1-433); experiment: EMSA; full monothiolation loses specificity; details: chain copies: 2 (stated)
NF-kB p50 homodimer [3] = biological target: T1, NF-kB p50 homodimer; experiment: EMSA; competition with 32P-IgkB; specificity lost on full thiolation; details: chain copies: 2 (stated)
Description: In standard competitive binding assays, ³²P-IgκB promoter element ODN duplex was incubated with recombinant p50 or p65 and competitor oligonucleotide (A) phosphodiester CK-1; (B) phosphorothioate CK-1. The reactions were then run on a nondenaturing polyacrylamide gel, and the amount of radioactivity bound to protein and shifted in the gel was quantitated by direct counting. […] It is the recognition that [S]-ODNs with large numbers of phosphorothioate linkages are “sticky” and tend to bind with poor specificity to proteins that led to one of the embodiments of the present invention. Using the method disclosed herein it was determined that if the number of phosphorothioate linkages is reduced to only 2-4, specificity can be restored, but binding is not enhanced.

c-Rel homodimer [4] = biological target: T2, c-Rel homodimer (UniProt Q04864 Q04864:2-619); experiment: EMSA; binds and competes; details: chain copies: 2 (stated)
T2 sequence: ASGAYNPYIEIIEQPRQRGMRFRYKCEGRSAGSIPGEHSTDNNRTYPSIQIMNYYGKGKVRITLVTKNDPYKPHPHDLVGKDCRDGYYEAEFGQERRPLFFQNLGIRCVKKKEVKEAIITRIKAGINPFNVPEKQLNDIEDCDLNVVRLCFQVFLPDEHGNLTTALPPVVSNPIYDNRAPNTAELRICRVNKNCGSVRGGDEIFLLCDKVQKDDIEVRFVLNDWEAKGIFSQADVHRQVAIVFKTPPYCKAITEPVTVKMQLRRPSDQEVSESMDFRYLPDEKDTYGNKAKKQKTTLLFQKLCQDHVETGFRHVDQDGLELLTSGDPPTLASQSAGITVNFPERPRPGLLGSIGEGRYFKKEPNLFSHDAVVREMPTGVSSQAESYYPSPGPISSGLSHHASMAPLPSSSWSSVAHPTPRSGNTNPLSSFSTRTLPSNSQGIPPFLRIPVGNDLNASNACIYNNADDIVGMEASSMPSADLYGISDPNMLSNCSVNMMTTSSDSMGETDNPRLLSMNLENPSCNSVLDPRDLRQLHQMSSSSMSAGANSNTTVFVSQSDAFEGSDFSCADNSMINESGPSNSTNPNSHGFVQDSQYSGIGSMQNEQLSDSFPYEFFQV

c-Rel homodimer [5] = biological target: T2, c-Rel homodimer; experiment: EMSA; single-copy site behaves similarly to CK-1; details: chain copies: 2 (stated)
NF-kB p50 homodimer [6] = biological target: T1, NF-kB p50 homodimer; experiment: EMSA; labeled probe in competition assays; details: chain copies: 2 (stated); label: 32P

T1 sequence (P19838 1-433, one chain of several): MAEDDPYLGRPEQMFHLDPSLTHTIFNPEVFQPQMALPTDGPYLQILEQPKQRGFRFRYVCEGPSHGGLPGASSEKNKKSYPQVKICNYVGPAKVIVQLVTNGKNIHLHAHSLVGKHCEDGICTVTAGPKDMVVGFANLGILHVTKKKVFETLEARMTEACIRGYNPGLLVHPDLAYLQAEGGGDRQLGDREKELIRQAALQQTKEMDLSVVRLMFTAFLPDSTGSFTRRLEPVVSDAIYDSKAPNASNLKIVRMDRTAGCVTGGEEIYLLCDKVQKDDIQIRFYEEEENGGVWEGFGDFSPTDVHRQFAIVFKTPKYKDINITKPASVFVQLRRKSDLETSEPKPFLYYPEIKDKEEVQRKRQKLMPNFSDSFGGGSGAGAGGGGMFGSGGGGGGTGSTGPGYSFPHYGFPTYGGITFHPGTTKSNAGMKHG
Chain of NF-IL6 (C/EBPbeta) tryptic core domain bZIP (TCD) (P17676 266-345): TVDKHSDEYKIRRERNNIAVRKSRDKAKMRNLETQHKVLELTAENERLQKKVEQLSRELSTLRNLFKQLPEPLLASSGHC

“TGCAGATTGCGCAATCTGCA (double strand) [C/EBPbeta palindromic 20-mer]” was tested, and the Kd [1] was 10 nM.

B1: CK-14 fully monothiolated duplex (dsDNA)
DNA 1: CCAGGAGATTCCAC
DNA 2: GTGGAATCTCCTGG
modifications: PS all linkages
B1: binds (NF-kB p50 homodimer [2]).

B2: CK-1 phosphorothioate duplex (dsDNA)
DNA 1: CCAGGAGATTCCACCCAGGAGATTCCACCCAGGAGATTCCAC
DNA 2: GTGGAATCTCCTGGGTGGAATCTCCTGGGTGGAATCTCCTGG
modifications: PS all linkages
B2: binds (NF-kB p50 homodimer [3]).

B3: CK-1 42-mer phosphodiester duplex (dsDNA)
DNA 1: CCAGGAGATTCCACCCAGGAGATTCCACCCAGGAGATTCCAC
DNA 2: GTGGAATCTCCTGGGTGGAATCTCCTGGGTGGAATCTCCTGG
B3: binds (c-Rel homodimer [4]).

B4: CK-14 phosphodiester duplex (dsDNA)
DNA 1: CCAGGAGATTCCAC
DNA 2: GTGGAATCTCCTGG
B4: binds (c-Rel homodimer [5]).

B5: IgkB promoter element 22-mer (dsDNA)
DNA 1: AGTTGAGGGGACTTTCCCAGGC
DNA 2: GCCTGGGAAAGTCCCCTCAACT
B5: binds (NF-kB p50 homodimer [6]).
